Test results as given in US20260103513A1 (HEFEI TG IMMUNOPHARMA, published 2026).

T1: Human TIGIT-His tag fusion protein (human, UniProt Q495A1 22-141)
T1 construct: extracellular domain; Bought (Acro); also called TIGIT extracellular domain-His tag fusion protein; TIGIT protein; not shown: His tag
T1 sequence (looked up): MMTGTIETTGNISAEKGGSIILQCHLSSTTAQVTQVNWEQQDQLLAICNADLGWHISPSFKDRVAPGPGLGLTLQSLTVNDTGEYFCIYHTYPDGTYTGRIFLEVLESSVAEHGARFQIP

T2: TIGIT protein overexpressed on cells (Homo sapiens (Human), UniProt Q495A1 22-244)
T2 construct: also called CHO-K1-TIGIT
T2 sequence: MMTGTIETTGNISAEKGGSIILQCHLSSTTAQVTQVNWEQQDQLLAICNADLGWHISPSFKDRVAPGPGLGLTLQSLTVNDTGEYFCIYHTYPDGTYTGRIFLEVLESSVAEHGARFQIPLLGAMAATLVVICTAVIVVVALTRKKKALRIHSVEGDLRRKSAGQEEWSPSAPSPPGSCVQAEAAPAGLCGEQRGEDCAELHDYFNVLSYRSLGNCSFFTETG


Tests used:
[1] = target: T1, Human TIGIT-His tag fusion protein; assay: ELISA, human TIGIT-His coated, HRP anti-human IgG, OD450
[2] = target: T2, TIGIT protein overexpressed on cells; assay: flow cytometry on 293T-TIGIT cells, Alexa-647 anti-human Fc, MFI
[3] = target: T3, Cynomolgus monkey TIGIT-His tag fusion protein (cynomolgus monkey, UniProt A0A7N9I9V4 89-209); assay: ELISA, cynomolgus TIGIT-His coated, HRP anti-human IgG, OD450
T3 construct: extracellular domain; Bought (Acro); also called TIGIT extracellular domain-His tag fusion protein; TIGIT protein; not shown: His tag

[4] = target: T2, TIGIT protein overexpressed on cells; assay: flow cytometry competition on 293T-TIGIT cells; blocked ligand CD155-mIgG2a-Fc, APC anti-mouse IgG2a, MFI
[5] = target: T1, Human TIGIT-His tag fusion protein; assay: competition ELISA on coated TIGIT-His; blocked ligand CD155-Biotin; the sheet does not name the species of the TIGIT-His
[6] = target: T4, recombinant TIGIT extracellular domain-Fc fusion protein; assay: SPR, Biacore T200, TIGIT-Fc amine-coupled on CM5, antibody injected, 1:1 Langmuir model
T4 construct: Covalently coupled to the CM5 chip in the Biacore assay; also called TIGIT-Fc
Method: The Biacore method is a well-established objective assay for detecting the affinity and kinetics between proteins. The TIGIT antibody of the present disclosure was analyzed using Biacore T200 to characterize its affinity and binding kinetics.
The TIGIT extracellular domain-Fc fusion protein (TIGIT-Fc) was covalently attached to a CM5 (GE) chip using a standard amino coupling method. A series of TIGIT antibodies diluted in PBS buffer at a concentration gradient was then injected in cycles, followed by regeneration with 10 mM NaOH solution. The antigen-antibody binding kinetics were monitored for 3 minutes, followed by dissociation kinetics for 10 minutes. The resulting data were analyzed using GE's BIAevaluation software in a 1:1 (Langmuir) binding model.

[7] = target: T2, TIGIT protein overexpressed on cells; assay: flow cytometry on CHO-K1-TIGIT cells, binding percentage (%)
[8] = target: T2, TIGIT protein overexpressed on cells; assay: flow cytometry competition on CHO-K1-TIGIT cells; blocked ligand CD155-mIgG2a-Fc, binding percentage (%)

Binder	EC50 (read off the curve) [1] [µg/mL]	EC50 (read off the curve) [2] [µg/mL]	EC50 (read off the curve) [3] [µg/mL]	IC50 (read off the curve) [4] [µg/mL]	IC50 (read off the curve) [5] [µg/mL]	Kd [6] [nM]	koff [6] [s⁻¹]	kon [6] [M⁻¹ s⁻¹]	EC50 (read off the curve) [7] [µg/mL]	IC50 (read off the curve) [8] [µg/mL]
H401LV2-hIgG1 (antibody, Wild-type human IgG1 constant region, human kappa light chain (H401LV2-hK); also called TIGIT antibody H401LV2) heavy: not shown light: DIVMTQSPSSMSTSVGDRVTITCRASQDVFNQVAWYQQKPGKSPKLLIYSASFRYTGVPDRFSGSGSGTDFTFTISSVQAEDFATYYCQQHYSTPLTFGAGTKLELKRTVAAPSVFIFPPSDEQLKSGTASVVCLLNNFYPREAKVQWKVDNALQSGNSQESVTEQDSKDSTYSLSSTLTLSKADYEKHKVYACEVTHQGLSSPVTKSFNRGEC	~0.04	~0.4	~0.02	~0.5	~0.8					
H401LV2-hIgG1LALA (antibody, also called TIGIT antibody H401LV2) heavy: not shown light: DIVMTQSPSSMSTSVGDRVTITCRASQDVFNQVAWYQQKPGKSPKLLIYSASFRYTGVPDRFSGSGSGTDFTFTISSVQAEDFATYYCQQHYSTPLTFGAGTKLELKRTVAAPSVFIFPPSDEQLKSGTASVVCLLNNFYPREAKVQWKVDNALQSGNSQESVTEQDSKDSTYSLSSTLTLSKADYEKHKVYACEVTHQGLSSPVTKSFNRGEC	~0.04	~0.6	~0.02	~0.5	~0.8					
Hu4A501 (antibody, V domains shown, also called parental antibody Hu4A501; parent antibody Hu4A501) VH: QVQLQESGPGLVKPSQTLSLTCTVTGSSITSDYAWNWIRQFPGKKLEWMGYITYSGRTTYNPSLKSRITISRDTSKNQFSLKLSSVTAADTATYYCARWGLLRRYFDYWGQGTLLTVSS VL: DIVMTQSPSSMSTSVGDRVTITCRASQDVFTAVAWYQQKPGKSPKLLIYSASFRYTGVPDRFSGSGSGTDFTFTISSVQAEDFATYYCQQHYSTPLTFGAGTKLELKR			~0.04		~0.8	5.06	0.000501	98900		
H401LV2-hIgG4S228P (antibody, also called TIGIT antibody H401LV2) heavy: not shown light: DIVMTQSPSSMSTSVGDRVTITCRASQDVFNQVAWYQQKPGKSPKLLIYSASFRYTGVPDRFSGSGSGTDFTFTISSVQAEDFATYYCQQHYSTPLTFGAGTKLELKRTVAAPSVFIFPPSDEQLKSGTASVVCLLNNFYPREAKVQWKVDNALQSGNSQESVTEQDSKDSTYSLSSTLTLSKADYEKHKVYACEVTHQGLSSPVTKSFNRGEC	~0.04		~0.02	~0.5	~0.8					
H401LV2-mIgG2a (antibody, Mouse IgG2a constant region, mouse kappa light chain (H401LV2-mK); also called TIGIT antibody H401LV2-mIgG2a) heavy: QVQLQESGPGLVKPSQTLSLTCTVTGSSITSDYAWNWIRQFPGKKLEWMGYITYSGRTTYNPSLKSRITISRDTSKNQFSLKLSSVTAADTATYYCARWGLLRRYFDYWGQGTLLTVSSAKTTAPSVYPLAPVCGDTTGSSVTLGCLVKGYFPEPVTLTWNSGSLSSGVHTFPAVLQSDLYTLSSSVTVTSSTWPSQSITCNVAHPASSTKVDKKIEPRGPTIKPCPPCKCPAPNLLGGPSVFIFPPKIKDVLMISLSPIVTCVVVDVSEDDPDVQISWFVNNVEVHTAQTQTHREDYNSTLRVVSALPIQHQDWMSGKEFKCKVNNKDLPAPIERTISKPKGSVRAPQVYVLPPPEEEMTKKQVTLTCMVTDFMPEDIYVEWTNNGKTELNYKNTEPVLDSDGSYFMYSKLRVEKKNWVERNSYSCSVVHEGLHNHHTTKSFSRTPGK light: DIVMTQSPSSMSTSVGDRVTITCRASQDVFNQVAWYQQKPGKSPKLLIYSASFRYTGVPDRFSGSGSGTDFTFTISSVQAEDFATYYCQQHYSTPLTFGAGTKLELKRADAAPTVSIFPPSSEQLTSGGASVVCFLNNFYPKDINVKWKIDGSERQNGVLNSWTDQDSKDSTYSMSSTLTLTKDEYERHNSYTCEATHKTSTSPIVKSFNRNEC									~0.05	~0.2
4.1D3 (antibody, mouse IgG2a, kappa, V domains shown, Comparator, made with mouse IgG2a heavy and mouse kappa light constant regions; also called 4.1D3-mIgG2a; 4.1D3 antibody) VH: EVQLQQSGPGLVKPSQTLSLTCAISGDSVSSNSAAWNWIRQSPSRGLEWLGKTYYRFKWYSDYAVSVKGRITINPDTSKNQFSLQLNSVTPEDTAVFYCTRESTTYDLLAGPFDYWGQGTLVTVSS VL: not shown									~0.1	~0.3
22G2 (antibody, mouse IgG2a, kappa, V domains shown, Comparator, mouse IgG2a heavy and mouse kappa light constant regions; the printed heavy chain reads VVVAVSE (as in the D265A form) although it is named only mIgG2a; also called 22G2-mIgG2a; 22G2 antibody) VH: QVQLQESGPGLVKPSETLSLTCTVSGGSVSSGIYYWSWIRQPPGKGLEWIGYIYYSGSTNYNPSLKSRVTISVDTSKNQFSLKLSSVTAADTAVYYCARDYYVSGNYYNVDYYFFGVDVWGQGTTVTVSS VL: EIVLTQSPATLSLSPGERATLSCRASQSVSSYLAWYQQKPGQAPRLLIYDASNRATGIPARFSGSGSGTDFTLTISSLEPEDFAVYYCQQRSNWPPLFTFGPGTKVDIKR									~0.2	~0.2
H401LV2 (antibody, V domains shown, also called matured TIGIT antibody H401LV2) VH: QVQLQESGPGLVKPSQTLSLTCTVTGSSITSDYAWNWIRQFPGKKLEWMGYITYSGRTTYNPSLKSRITISRDTSKNQFSLKLSSVTAADTATYYCARWGLLRRYFDYWGQGTLLTVSS VL: DIVMTQSPSSMSTSVGDRVTITCRASQDVFNQVAWYQQKPGKSPKLLIYSASFRYTGVPDRFSGSGSGTDFTFTISSVQAEDFATYYCQQHYSTPLTFGAGTKLELK						≤ 0.00508	≤ 1e-06	197000		
